Target: 截短型抗原蛋白GPdM (Ebola virus (EBOV), UniProt Q05320 33-632)
Assay: ELISA on coated truncated GP

B1: 抗埃博拉病毒糖蛋白GP1亚基的单克隆抗体4F1 (antibody, V domains shown)
VH: EVQLVESGGGLVQPGGSLRLSCAASGFSFRIYDMHWVRQVTGRGLEWVSAIGSASDTYYRDSVKGRFTISRENAKNSLYLQMNSLRAGDTAVYYCARASFGELMFDLWGQGTLVTVSS
VL: DIQMTQSPSSLSLSPGERATLSCRASQSVGSSLAWYQQKPGQAPRLLIYAASSRATGFPDRFSGSGSGTDFTLTISRLEPEDFAVYYCQQYGGSPLTFGGGTKVEIKT
B1 showed an EC50 of 6.9 ng/mL.
